Here are results for three molecules from publication PMC4457860, “In Vitro Interaction of the Housekeeping SecA1 with the Accessory SecA2 Protein of Mycobacterium tuberculosis” (PLoS ONE, 2015).

The target in series [1] is Escherichia coli SecA labeled with Cy5 (E. coli) (UniProt P10408). As to the kind of experiment: MST; Monolith NT.115; unlabeled protein (1 nM to 5 μM) titrated into 25 nM Cy5-labeled protein, mixed in 300 mM KCl, then diluted into low salt buffer (25 mM HEPES-KOH pH 7.5, 30 mM KCl, 2 mM MgCl2, 50 mM arginine); Hill fit, apparent Kd; dimer to monomers.
For series [2], the target named is Mycobacterium tuberculosis SecA1 (unlabeled) (Mycobacterium tuberculosis strain H37Rv) (UniProt P9WGP5). As to the kind of experiment: SEC; Superdex 200 10/300 GL, 0.5 ml/min, 20 mM HEPES-KOH pH 7.5, 2 mM MgCl2, 50 mM arginine, low salt (30 mM KCl); protein 2-5 mg/ml; mass estimated with protein standards.
Series [3] deals with the molecule itself. The description is as above.

“Escherichia coli SecA (unlabeled) (from UniProt P10408 1-901) (natural protein)”: the Kd in series [1] stood at 31 nM. In the case of “Mycobacterium tuberculosis SecA1 (unlabeled) (from UniProt P9WGP5 1-949) (natural protein)”, the stoichiometry N in series [2] was 2.

B1: Mycobacterium tuberculosis SecA2 (unlabeled) (natural protein)
chain: MVPKTTRAQPGRLSSRFWRLLGASTEKNRSRSLADVTASAEYDKEAADLSDEKLRKAAGLLNLDDLAESADIPQFLAIAREAAERRTGLRPFDVQLLGALRMLAGDVIEMATGEGKTLAGAIAAAGYALAGRHVHVVTINDYLARRDAEWMGPLLDAMGLTVGWITADSTPDERRTAYDRDVTYASVNEIGFDVLRDQLVTDVNDLVSPNPDVALIDEADSVLVDEALVPLVLAGTTHRETPRLEIIRLVAELVGDKDADEYFATDSDNRNVHLTEHGARKVEKALGGIDLYSEEHVGTTLTEVNVALHAHVLLQRDVHYIVRDDAVHLINASRGRIAQLQRWPDGLQAAVEAKEGIETTETGEVLDTITVQALINRYATVCGMTGTALAAGEQLRQFYQLGVSPIPPNKPNIREDEADRVYITTAAKNDGIVEHITEVHQRGQPVLVGTRDVAESEELHERLVRRGVPAVVLNAKNDAEEARVIAEAGKYGAVTVSTQMAGRGTDIRLGGSDEADHDRVAELGGLHVVGTGRHHTERLDNQLRGRAGRQGDPGSSVFFSSWEDDVVAANLDHNKLPMATDENGRIVSPRTGSLLDHAQRVAEGRLLDVHANTWRYNQLIAQQRAIIVERRNTLLRTVTAREELAELAPKRYEELSDKVSEERLETICRQIMLYHLDRGWADHLAYLADIRESIHLRALGRQNPLDEFHRMAVDAFASLAADAIEAAQQTFETANVLDHEPGLDLSKLARPTSTWTYMVNDNPLSDDTLSALSLPGVFR
notes: No tag; molecular mass 85 kDa on SDS-PAGE; also called PIP152
For B1, the “stoichiometry N” value in series [3] is 2.

In general, stoichiometry N refers to a count of units in the complex or per binding partner.
